Measured values taken from US20070172470A1, “Phosphatase regulation of nucleic acid transcription” (The Regents of the University of California, priority 2003, published 2007).
Blank lines part the entries; values can stand above or below the molecule they belong to.

Experiments:
[1] = target: T1, GST-CTDo (Homo sapiens, UniProt P24928); assay: CTD phosphatase assay with GST-CTDo (rCTDo) as substrate; format: biochemical
T1 construct: made in house
Description: (§1) FIGS. 2C and 2D show a CTD phosphatase assay of FCP1 and SCP1 on GST-CTDo and RNAP IIO prepared by MAPK2/ERK2. Increasing amounts of FCP1 or GST-SCP1 214 were assayed in the presence of 75 fmol GST-CTDo (lanes 1-6), 75 fmol RNAP IIO (lanes 7-12), or 75 fmol GST-CTDo and 75. fmol RNAP IIO (lanes 13-18). Both GST-CTDo and RNAP IIO substrates were prepared by the in vitro phosphorylation of CKII-labeled GST-CTDa or RNAP IIA by MAPK2/ERK2. All reactions were carried out in the presence of 7 pmol RAP74. CTD dephosphorylation of both GST-CTDo and RNAP IIO is shown by the increase in mobility of GST-CTDo to GST-CTDa and subunit IIo to IIa, respectively. The difference in the intensity of radiolabeled GST-CTDoand that of radiolabeled subunit IIo is not a reflection of a difference in the amount of substrates present, but of the higher efficiency with which CKII incorporates radiolabeled phosphates onto the most C-terminal serine of GST-CTDa compared to subunit. IIa.
Preparation and Purification of ^32P-RNAP IIO Isozymess and ^32P-GST-CTDo: Calf thymus RNAP IIA was purified by the method of Hodo and Blatti (30) with modifications as described by Kang and Dahmus (31). […]
CTD phosphatase assays utilizing RNAP IIO and GST-CTDo as substrate were performed as described previously (32) with minor modifications. […] Data were quantitatively analyzed by ImageQuant software.

[2] = target: T2, RNAP IIO (Bos taurus, UniProt G3MZY8); assay: CTD phosphatase assay with RNAP IIO as substrate; format: biochemical, calf
T2 construct: Calf thymus RNAP IIA was purified; from tissue; host or cells: calf thymus
Description: as §1
Increasing amounts of GST-SCP1 214 were assayed in the presence of 3.7 fmol RNAP IIO prepared by CTDK1/CTDK2, TFIIH, P-TEFb, MAPK2/ERK2 and Cdc2 kinase. All reactions were carried out in-the presence of 7 pmol. RAP74. CTD dephosphorylation of RNAP IIO isozymes. by qSTSCP1 214 is shown by an increase in mobility of subunit IIo to that of IIa. The results are summarized in the graph showing the percent of RNAP IIO remaining as a function of increasing SCP1 concentrations.
Preparation and Purification of ^32P-RNAP IIO Isozymess and ^32P-GST-CTDo: Calf thymus RNAP IIA was purified by the method of Hodo and Blatti (30) with modifications as described by Kang and Dahmus (31). Specific isozymes of ^32p-labeled RNAP IIO were prepared by phosphorylation at the most C-terminal serine (CKII site) in the largest subunit of purified RNAP IIA with recombinant CKII and […], followed by CTD phosphorylation in the presence of 2 mM ATP with either purified CTDK1/CTDK2, TFIIH, P-TEFb, recombinant MAPK2/ERK2 or recombinant Cdc2 kinase. The RNAP IIO isozymes were individually purified over a DE53 column with a step elution of 500 mM KCl (28). Because only the most C-terminal serine is labeled with ^32p and lies outside. the consensus repeat, dephosphorylation by CTD phosphatase results in an electrophoretic mobility shift in SDS-PAGE of subunit IIo to the position of subunit IIa without the loss of label. Similarly, ^32P-labeled GST-CTDo was prepared from GST-CTDa by CKII followed by MAPK2/ERK2. GST-CTDo was purified over a glutathione-agarose column with a step elution of 15 mM glutathione.
CTD phosphatase assays utilizing RNAP IIO and GST-CTDo as substrate were performed as described previously (32) with minor modifications. Reactions were performed in 20 μl of CTD phosphatase buffer (50 mM Tris-HCl, pH 7.9, 10 mM MgCl2, 20% glycerol, 0.025% Tween 80, 0.1 mM EDTA, 5 mM DTT) in the presence of 20 mM KCl. Each reaction contained specified amounts of GST-CTDo and/or RNAP IIO and was carried out in the presence of 7 pmol RAP74. Reactions were initiated by the addition of FCP1 or SCP1 and incubated at 30° C. for 30 minutes. Assays were terminated by the addition of 5× Laemmli buffer, and RNAP II subunits and GST-CTD were resolved on a 5% SDS-PAGE gel. The gel images were developed by autoradiography and scanned by Molecular Dynamics Image Scanner Storm 860 in the phosphor screen mode. Data were quantitatively analyzed by ImageQuant software.

[3] = tested on: 28 aa CTD heptad repeat peptide with Ser 5 phosphate or Ser 2 phosphate; assay: CTD phosphopeptide phosphatase assay (malachite green); format: biochemical; details: 25 μM phosphopeptide, 60 mins at 37° C.
Description: The indicated amounts of. SCP1 were incubated with the phosphopeptide substrate and phosphate released was measured as described infra.
N-terminal biotinylated CTD phosphopeptides, comprised of 4 tandem repeats YSPTSPS and containing phosphoserine at position 2 or position 5, were synthesized (Alpha Diagnostics, San Antonio, Tex.). Phosphatase reaction mixtures (50 μl) containing 50 mM Tris-acetate, pH 5.5, 10 mM MgCl2, 0.5 mM DTT, 10% glycerol, 25 μM of phosphopeptide and wild type or mutant SCP1 were incubated for 60 mins at 37° C. The reactions were quenched by adding 0.5 ml of malachite green (Biomol). Phosphate release was measured at A620 and quantified relative to a phosphate standard curve.

[4] = tested on: P19 mouse embryonic stem cells; assay: Neuronal differentiation of P19 cells; format: cell-based; details: clonal P19 line, retinoic acid, selective medium
Description: P19 cells, C, differentiated GFP expressing P19 cells; D, differentiated SCP1-expressing P19 cells; F, differentiated REST/NRSF-expressing P19 cells. Numbers of NLC per field are shown. *p=0.001 compared to WT 19 cells; **p=0.008 compared to WT P19 cell using student's t-test.
P19 stably expressing REST/NRSF.
These cell lines were maintained in α-MEM/10%FBS with […] G418. To induce neuronal differentiation, P19 cells were allowed to aggregate in bacterial grade petri-dishes (Fisher) at a seeding density of 1×10^5cells/ml in the presence of 1×10^−6M all-trans retinoic acid. After 3 days of aggregation, cells were dissociated into single cells by 0.05% trypsin-0.53 mM EDTA (Gibco). Trypsin was removed by centrifugation and the cells were plated in 6 cm tissue culture dishes (Nunc). at a density of 1×10^5 cells/cm^2 in Neurobasal medium/N2 supplement (Invitrogen) in the presence or absence of 1 μg/ml fibronectin (Invitrogen). The cells were cultured for 5 days after which average cell numbers/field were determined. Cells were either lysed to prepare total RNA (Rneasy kit, Qiagen) or stained with TuJ1 antibody (Babco).
For immunostaining, cells were fixed for 10 mins with 4% paraformaldehyde. TuJ1 antibody was used at 1:2000 and secondary antibody used was FITC-conjuagated anti-mouse (1:3000).

T1 sequence (P24928 1593-1960 A1835T, one chain of several): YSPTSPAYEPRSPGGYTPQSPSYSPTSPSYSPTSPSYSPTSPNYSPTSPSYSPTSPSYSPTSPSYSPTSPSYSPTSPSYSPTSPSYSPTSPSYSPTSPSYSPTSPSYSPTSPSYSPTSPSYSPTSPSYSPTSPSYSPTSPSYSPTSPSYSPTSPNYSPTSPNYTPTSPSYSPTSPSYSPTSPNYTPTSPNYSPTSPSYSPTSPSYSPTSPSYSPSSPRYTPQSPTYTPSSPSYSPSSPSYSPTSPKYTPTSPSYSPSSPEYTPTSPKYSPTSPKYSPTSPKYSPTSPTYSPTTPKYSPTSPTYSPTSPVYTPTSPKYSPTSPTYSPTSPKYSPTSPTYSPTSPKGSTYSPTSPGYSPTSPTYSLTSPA

B2: SCP2: small CTD phosphatase-2, SEQ ID NO:4 (protein, listed as Homo sapiens)
chain: MEHGSIITQARREDALVLTKQGLVSKSSPKKPRGRNIFKALFCCFRAQHVGQSSSSTELAAYKEEANTIAKSDLLQCLQYQFYQIPGTCLLPEVTEEDQGRICVVIDLDETLVHSSFKPINNADFIVPIEIEGTTHQVYVLKRPYVDEFLRRMGELFECVLFTASLAKYADPVTDLLDRCGVFRARLFRESCVFHQGCYVKDLSRLGRDLRKTLILDNSPASYIFHPENAVPVQSWFDDMADTELLNLIPIFEELSGAEDVYTSLGAAAGPLACPASKRRPSQ
- CTD phosphatase activity when RNAP IIO is utilized as substrate ([2]; compared with SCP1): comparable CTD phosphatase activity

B4: REST/NRSF: RE-1 silencing transcription factor / Neuron-Restrictive Silencer Factor (protein, UniProt Q13127 1-1097, looked up)
RE1-silencing transcription …: MATQVMGQSSGGGGLFTSSGNIGMALPNDMYDLHDLSKAELAAPQLIMLANVALTGEVNGSCCDYLVGEERQMAELMPVGDNNFSDSEEGEGLEESADIKGEPHGLENMELRSLELSVVEPQPVFEASGAPDIYSSNKDLPPETPGAEDKGKSSKTKPFRCKPCQYEAESEEQFVHHIRVHSAKKFFVEESAEKQAKARESGSSTAEEGDFSKGPIRCDRCGYNTNRYDHYTAHLKHHTRAGDNERVYKCIICTYTTVSEYHWRKHLRNHFPRKVYTCGKCNYFSDRKNNYVQHVRTHTGERPYKCELCPYSSSQKTHLTRHMRTHSGEKPFKCDQCSYVASNQHEVTRHARQVHNGPKPLNCPHCDYKTADRSNFKKHVELHVNPRQFNCPVCDYAASKKCNLQYHFKSKHPTCPNKTMDVSKVKLKKTKKREADLPDNITNEKTEIEQTKIKGDVAGKKNEKSVKAEKRDVSKEKKPSNNVSVIQVTTRTRKSVTEVKEMDVHTGSNSEKFSKTKKSKRKLEVDSHSLHGPVNDEESSTKKKKKVESKSKNNSQEVPKGDSKVEENKKQNTCMKKSTKKKTLKNKSSKKSSKPPQKEPVEKGSAQMDPPQMGPAPTEAVQKGPVQVEPPPPMEHAQMEGAQIRPAPDEPVQMEVVQEGPAQKELLPPVEPAQMVGAQIVLAHMELPPPMETAQTEVAQMGPAPMEPAQMEVAQVESAPMQVVQKEPVQMELSPPMEVVQKEPVQIELSPPMEVVQKEPVKIELSPPIEVVQKEPVQMELSPPMGVVQKEPAQREPPPPREPPLHMEPISKKPPLRKDKKEKSNMQSERARKEQVLIEVGLVPVKDSWLLKESVSTEDLSPPSPPLPKENLREEASGDQKLLNTGEGNKEAPLQKVGAEEADESLPGLAANINESTHISSSGQNLNTPEGETLNGKHQTDSIVCEMKMDTDQNTRENLTGINSTVEEPVSPMLPPSAVEEREAVSKTALASPPATMAANESQEIDEDEGIHSHEGSDLSDNMSEGSDDSGLHGARPVPQESSRKNAKEALAVKAAKGDFVCIFCDRSFRKGKDYSKHLNRHLVNVYYLEEAAQGQE
- effect on neuronal differentiation [4]: prevented neuronal differentiation

Continued, values first:

- concentration without dephosphorylation of rCTDo, relative to that required to dephosphorylate RNAP IIO [1]: > 100 times
- dephosphorylation of RNAP IIO prepared with Cdc2 kinase ([2]; 3.7 fmol RNAP IIO, 7 pmol RAP74): efficiently dephosphorylates
- dephosphorylation of Ser 5 versus Ser 2 phosphopeptide [3]: did not act on either phosphopeptide
B1: FCP1: recombinant CTD phosphatase FCP1, class C phosphatase with BRCT domain (protein)
chain: MEVPAAGRVPAEGAPTAAVAEVRCPGPAPLRLLEWRVAAGAAVRIGSVLAVFEAAASAQSSGASQSRVASGGCVRPARPERRLRSERAGVVRELCAQPGQVVAPGAVLVRLEGCSHPVVMKGLCAECGQDLTQLQSKNGKQQVPLSTATVSMVHSVPELMVSSEQAEQLGREDQQRLHRNRKLVLMVDLDQTLIHTTEQHCQQMSNKGIFHFQLGRGEPMLHTRLRPHCKDFLEKIAKLYELHVFTFGSRLYAHTIAGFLDPEKKLFSHRILSRDECIDPFSKTGNLRNLFPCGDSMVCIIDDREDVWKFAPNLITVKKYVYFQGTGDMNAPPGSRESQTRKKVNHSRGTEVSEPSPPVRDPEGVTQAPGVEPSNGLEKPARELNGSEAATPRDSPRPGKPDERDIWPPAQAPTSSQELAGAPEPQGSCAQGGRVAPGQRPAQGATGTDLDFDLSSDSESSSESEGTKSSSSASDGESEGKRGRQKPKAAPEGAGALAQGSSLEPGRPAAPSLPGEAEPGAHAPDKEPELGGQEEGERDGLCGLGNGCADRKEAETESQNSELSGVTAGESLDQSMEEEEEEDTDEDDHLIYLEEILVRVHTDYYAKYDRYLNKEIEEAPDIRKIVPELKSKVLADVAIIFSGLHPTNFPIEKTREHYHATALGAKILTRLVLSPDAPDRATHLIAARAGTEKVLQAQECGHLHVVNPDWLWSCLERWDKVEEQLFPLRDDHTKAQRENSPAAFPDREGVPPTALFHPMPVLPKAQPGPEVRIYDSNTGKLIRTGARGPPAPSSSLPIRQEPSSFRAVPPPQPQMFGEELPDAQDGEQPGPSRRKRQPSMSETMPLYTLCKEDLESMDKEVDDILGEGSDDSDSEKRRPEEQEEEPQPRKPGTRRERTLGAPASSERSAAGGRGPRGHKRKLNEEDAASESSRESSNEDEGSSSEADEMAKALEAELNDLM

- dephosphorylation of both RNAP IIO and GST-CTDo ([1]; substrates prepared by MAPK2/ERK2, 75 fmol each, 7 pmol RAP74): comparable efficiency
B3: GST-SCP1 214: GST fusion of the 214 aa spliced variant of SCP1, SEQ ID NO:8 (protein)
chain: MMGRPCLLTAGRPCLWRRMAPSLRQTPVQYLLPEAKAQDSDKICVVIDLDETLVHSSFKPVNNADFIIPVEIDGVVHQVYVLKRPHVDEFLQRMGELFECVLFTASLAKYADPVADLLDKWGAFRARLFRESCVFHRGNYVKDLSRLGRDLRRVLILDNSPASYVFHPDNAVPVASWFDNMSDTELHDLLPFFEQLSRVDDVYSVLRQPRPGS
modifications: left off: a dimerising Fc or GST
